pKd: −log10 of the molar value.
Legend:
[1] = target: Recombinant mouse fibulin-5 (mouse) (UniProt Q9WVH9); experiment: SPR
[2] = target: Recombinant mouse fibulin-2 (mouse) (UniProt P37889); experiment: SPR
Chain of UniProt P37889 (P37889 27-1221): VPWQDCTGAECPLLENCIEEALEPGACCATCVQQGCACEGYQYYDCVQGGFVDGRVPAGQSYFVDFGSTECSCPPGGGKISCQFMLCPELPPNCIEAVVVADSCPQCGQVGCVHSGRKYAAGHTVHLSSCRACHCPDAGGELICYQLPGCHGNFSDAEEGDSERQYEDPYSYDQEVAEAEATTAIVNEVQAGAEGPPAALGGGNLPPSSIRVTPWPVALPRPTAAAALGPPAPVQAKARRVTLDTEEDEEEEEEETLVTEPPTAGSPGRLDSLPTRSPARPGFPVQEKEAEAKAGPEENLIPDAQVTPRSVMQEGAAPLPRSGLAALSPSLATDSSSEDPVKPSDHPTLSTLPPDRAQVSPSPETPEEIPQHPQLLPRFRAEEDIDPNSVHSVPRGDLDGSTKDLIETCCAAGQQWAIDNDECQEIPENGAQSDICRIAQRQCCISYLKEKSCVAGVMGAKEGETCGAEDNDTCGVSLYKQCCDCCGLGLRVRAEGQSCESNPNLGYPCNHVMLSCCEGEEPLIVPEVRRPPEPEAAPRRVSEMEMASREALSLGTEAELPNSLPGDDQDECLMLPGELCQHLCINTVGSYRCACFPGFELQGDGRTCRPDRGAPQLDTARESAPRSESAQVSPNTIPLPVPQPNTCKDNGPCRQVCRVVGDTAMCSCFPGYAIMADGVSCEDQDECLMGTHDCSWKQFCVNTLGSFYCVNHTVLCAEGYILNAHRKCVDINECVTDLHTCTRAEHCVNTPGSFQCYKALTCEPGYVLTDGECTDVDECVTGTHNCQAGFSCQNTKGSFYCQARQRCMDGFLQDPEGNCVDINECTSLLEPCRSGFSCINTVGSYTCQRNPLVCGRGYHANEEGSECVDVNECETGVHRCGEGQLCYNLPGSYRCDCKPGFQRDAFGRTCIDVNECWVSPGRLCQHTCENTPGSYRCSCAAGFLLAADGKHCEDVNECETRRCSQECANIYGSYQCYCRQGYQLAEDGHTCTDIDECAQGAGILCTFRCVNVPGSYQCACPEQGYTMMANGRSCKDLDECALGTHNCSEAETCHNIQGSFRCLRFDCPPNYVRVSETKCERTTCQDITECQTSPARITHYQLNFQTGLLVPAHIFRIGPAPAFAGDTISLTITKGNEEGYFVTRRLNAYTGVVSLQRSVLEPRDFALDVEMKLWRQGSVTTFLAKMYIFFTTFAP

Chain of UniProt Q9WVH9 (Q9WVH9 24-448): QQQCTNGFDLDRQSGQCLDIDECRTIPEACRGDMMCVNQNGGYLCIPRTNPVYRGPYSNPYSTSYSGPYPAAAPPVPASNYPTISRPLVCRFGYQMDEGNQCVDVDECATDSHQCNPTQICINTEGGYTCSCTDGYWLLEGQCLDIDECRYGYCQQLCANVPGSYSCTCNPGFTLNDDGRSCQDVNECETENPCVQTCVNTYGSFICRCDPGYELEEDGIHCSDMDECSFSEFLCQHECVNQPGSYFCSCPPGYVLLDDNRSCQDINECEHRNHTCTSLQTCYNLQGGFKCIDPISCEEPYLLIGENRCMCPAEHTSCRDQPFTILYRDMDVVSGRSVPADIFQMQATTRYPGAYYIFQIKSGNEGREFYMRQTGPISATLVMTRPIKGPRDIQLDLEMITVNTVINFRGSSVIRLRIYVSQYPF

Substance	pKd [1]	pKd [2]
Recombinant mouse fibulin-2 (from UniProt P37889 27-1221) (natural protein)	7.00	
Recombinant mouse fibulin-5 (from UniProt Q9WVH9 24-448) (natural protein)		5.78
